Where a chain is given by its changes, count along the chain named. Values belong to the binder of their own block, whether it stands above or below them.
Experiments:
[1] = biological target: T1, human BMP6 (R&D Systems, Cat #507-BP) (human, UniProt P22004 375-513, limits assumed); test: cell-based or functional assay
T1 sequence: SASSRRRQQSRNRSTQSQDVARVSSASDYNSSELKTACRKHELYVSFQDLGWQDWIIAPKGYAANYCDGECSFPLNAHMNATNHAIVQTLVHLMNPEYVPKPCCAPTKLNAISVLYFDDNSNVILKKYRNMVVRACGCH

[2] = biological target: T2, mouse BMP6 (R&D Systems, Cat #6325-BM) (mouse, UniProt P20722 372-510, limits assumed); test: cell-based or functional assay
T2 sequence: T1 sequence with A21S, V23G, S25G, A26S, S31G, R39K

[3] = biological target: T1, human BMP6 (R&D Systems, Cat #507-BP); test: SPR (MASS-1), mAb captured on anti-human Fc, hBMP6 in solution, 37 C
Method: (§1) Equilibrium dissociation constants (KD values) for human and mouse BMP6 binding to purified anti-BMP6 monoclonal antibodies of this invention were determined using a real-time surface plasmon resonance (SPR) biosensor instrument, MASS-1. All binding studies were performed in 10 mM HEPES, 150 mM NaCl, 3 mM EDTA, 1 μg/mL Heparin, and 0.05% v/v Surfactant Tween-20, pH 7.4 (HBS-EHT) running buffer at 25° C. and 37° C. The HCA sensor surface was first derivatized by amine coupling the monoclonal mouse anti-human Fc antibody (GE, #BR100839) and anti-BMP6 monoclonal antibodies were individually captured. Different concentrations of human BMP6 reagents (hBMP6; R&D Systems, Cat #507-BP; 60 nM-0.94 nM; 4-fold serial dilution) or mouse BMP6 (mBMP6; R&D Systems, Cat #6325-BM; 60 nM and 15 nM) prepared in HBS-EHT running buffer were injected over the captured anti-BMP6 monoclonal antibody for 4 minutes at a flow rate of 30 μL/minute, while the dissociation of BMP6 reagent bound to captured anti-BMP6 monoclonal antibody was monitored for 10 minutes in HBS-EHT running buffer. Kinetic association (kₐ) and dissociation (kd) rate constants were determined by fitting the real-time binding sensorgrams to a 1:1 binding model with mass transport limitation using Scrubber 2.0c software. Binding dissociation equilibrium constant (KD) and dissociative half-life (t½) for different anti-BMP6 monoclonal antibodies were calculated from the kinetic rate constants as: […]

[4] = biological target: T2, mouse BMP6 (R&D Systems, Cat #6325-BM); test: SPR (MASS-1), mAb captured on anti-human Fc, mBMP6 in solution, 25 C
Method: as §1

[5] = biological target: T2, mouse BMP6 (R&D Systems, Cat #6325-BM); test: SPR (MASS-1), mAb captured on anti-human Fc, mBMP6 in solution, 37 C
Method: as §1

Human BMP7 = biological target: T3, Human BMP7 (human, UniProt P18075 293-431); test: BLI (Octet HTX), mAb captured on Protein A sensor, 100 nM ligand, 25 C
T3 sequence (looked up): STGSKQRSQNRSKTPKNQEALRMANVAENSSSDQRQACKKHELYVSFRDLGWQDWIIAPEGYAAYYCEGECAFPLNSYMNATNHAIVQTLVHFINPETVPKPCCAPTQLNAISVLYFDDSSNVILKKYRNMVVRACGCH
Method: (§2) Binding cross-reactivity of anti-BMP6 monoclonal antibodies to BMP6 family members, (Human: BMP6, BMP5, BMP7, BMP8A, BMP9, BMP10, BMP12, BMP14, BMP3b, Activin A, and GDF3 and mouse: BMP6 and GDF6) was determined using a real-time Bio-Layer Interferometry (BLI) biosensor using Octet HTX instrument. All binding studies were performed in 10 mM HEPES, 150 mM NaCl, 3 mM EDTA, 1 mg/mL BSA, 50 μg/mL Heparin, and 0.05% v/v Surfactant Tween-20, pH 7.4 (HBS-EBHT) buffer at 25° C. with the plate shaking at a speed of 1000 rpm. To assess binding cross-reactivity, Protein A coated Octet biosensor (Pall ForteBio Corp., #18-5010) was first dipped in wells containing […] of anti-BMP6 monoclonal antibodies for 4 minutes followed by submerging in wells containing 100 nM of different BMP6 family members for 4 minutes. The biosensors were washed in HBS-EBHT buffer in between every step of the experiment. At the end of each cycle, the Protein A biosensor was regenerated using three alternate 5 second dips in 10 mM Glycine pH 2.0 and 10 second dip HBS-EBHT buffer. The real-time binding response was monitored during the course of the experiment and the binding response at the end of every step was recorded and tabulated as shown in Tables 8A and 8B.

Human BMP9 = biological target: T4, Human BMP9 (human, UniProt Q9UK05 320-429); test: as above
T4 sequence (looked up): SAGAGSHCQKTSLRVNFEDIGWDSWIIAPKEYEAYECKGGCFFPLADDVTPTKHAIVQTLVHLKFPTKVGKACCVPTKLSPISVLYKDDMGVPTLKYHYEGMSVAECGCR
Method: as §2

Human BMP14/GDF5 = biological target: T5, Human BMP14/GDF5 (human, UniProt P43026 382-501); test: as above
T5 sequence (looked up): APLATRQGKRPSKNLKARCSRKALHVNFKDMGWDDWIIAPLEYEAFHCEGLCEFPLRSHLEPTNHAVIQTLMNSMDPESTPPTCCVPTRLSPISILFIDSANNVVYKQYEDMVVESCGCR
Method: as §2

[6] = biological target: T2, mouse BMP6 (R&D Systems, Cat #6325-BM); test: as above
Method: as §2

IC50 [M], inhibition of 1 nM hBMP6 activation of Hep3B/BRE-luc cells (luciferase) [1]: 1.6e-09 M
IC50 [M], inhibition of 5 nM mBMP6 activation of W-20-17/BRE-luc cells (luciferase) [2]: 1.1e-08 M
kon [3]: 41600 M⁻¹ s⁻¹
Kd [4]: 3.39 nM
koff [4]: 0.000127 s⁻¹
kon [4]: 37400 M⁻¹ s⁻¹
t1/2 [4]: 1.52 h
Kd [5]: 4 nM
koff [5]: 9.43e-05 s⁻¹
kon [5]: 23500 M⁻¹ s⁻¹
t1/2 [5]: 2.05 h
binding response (Human BMP7): 0 nm
binding response (Human BMP9): 0.01 nm
binding response (Human BMP14/GDF5): -0.01 nm
binding response [6]: 0.09 nm
B1: H4H17871P (antibody, V domains shown)
VH: EVQLVESGGGLVQPGGSLRLSCAASGFTFNNYAMSWVRQAPGKGLEWVSAISGSGDSTYYADSVKGRFTISRDNSKNTLYLQMNSLRAEDTAVYYCAKRSRSSPFDPWGQGTLVTVSS
VL: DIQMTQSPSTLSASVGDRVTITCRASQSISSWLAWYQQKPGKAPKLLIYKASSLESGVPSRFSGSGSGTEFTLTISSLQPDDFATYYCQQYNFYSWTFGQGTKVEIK
notes: Fully human antibody; also called anti-BMP6 monoclonal antibody; BMP6 antibody of the invention

IC50 [M], inhibition of 1 nM hBMP6 activation of Hep3B/BRE-luc cells (luciferase) [1]: 2.5e-10 M
IC50 [M], inhibition of 5 nM mBMP6 activation of W-20-17/BRE-luc cells (luciferase) [2]: 1.9e-09 M
Kd [3]: 1.34 nM
kon [3]: 61100 M⁻¹ s⁻¹
t1/2 [3]: 2.35 h
Kd [4]: 3.55 nM
koff [4]: 0.00013 s⁻¹
kon [4]: 36600 M⁻¹ s⁻¹
t1/2 [4]: 1.48 h
Kd [5]: 6.46 nM
koff [5]: 0.000154 s⁻¹
kon [5]: 23800 M⁻¹ s⁻¹
t1/2 [5]: 1.25 h
binding response (Human BMP7): 0.05 nm
binding response (Human BMP9): 0 nm
binding response (Human BMP14/GDF5): -0.02 nm
binding response [6]: 0.09 nm
B2: H4H17855P (antibody, V domains shown)
VH: B1 VH with N30S, N31S, D56G, S57R, A61T, I70M, S100P, R101Y, S102N
VL: EIVLTQSPGTLSLSPGEGATLSCRASQSVSSSYLAWYQQKPGQAPRLLIYGASSRATGIPDRFSGSGSGTDFTLTISRLEPEDFVVYYCQHFGGTPFTFGGGTKVEIK
notes: as for B1

From patent publication US20220251184A1 (Regeneron, published 2022)
